In assay [1] the target is gliding-associated protein GAP45 (Toxoplasma gondii (endogenous in tachyzoites)) (UniProt Q7Z289). Kind of assay: co-IP; polyclonal anti-MLC1 or anti-GAP45 antibodies on [35S]-labelled wild type (RH) and MyoA-KO parasites and on MyoA-iKO parasites +/- ATc, Triton X-100 lysate, autoradiography, bands quantified with ImageJ.
Assay [2] addresses myosin light chain 1 (MLC1) (Toxoplasma gondii (endogenous in tachyzoites)). Described as above.

From paper PMC4231161 come the findings set out here.

For the substance myosin C (MyoC) (natural protein), the more MyoC co-precipitated in the absence of MyoA than in its presence in assay [1] and in assay [2] was 50% in each case.
